Experiments:
caspase 3 = caspase 3 (UniProt P42574)
[1] = target: rKgp: mature recombinant Kgp catalytic domain with the ABM1 motif (Gly681-Ala710) deleted (Porphyromonas gingivalis W50)
papain = papain (UniProt P00784)
[2] = target: T1, mature RgpB from P. gingivalis HG66 (Porphyromonas gingivalis HG66, UniProt P95493 230-736); test: enzyme inhibition kinetics; settings: both partners purified
T1 chain: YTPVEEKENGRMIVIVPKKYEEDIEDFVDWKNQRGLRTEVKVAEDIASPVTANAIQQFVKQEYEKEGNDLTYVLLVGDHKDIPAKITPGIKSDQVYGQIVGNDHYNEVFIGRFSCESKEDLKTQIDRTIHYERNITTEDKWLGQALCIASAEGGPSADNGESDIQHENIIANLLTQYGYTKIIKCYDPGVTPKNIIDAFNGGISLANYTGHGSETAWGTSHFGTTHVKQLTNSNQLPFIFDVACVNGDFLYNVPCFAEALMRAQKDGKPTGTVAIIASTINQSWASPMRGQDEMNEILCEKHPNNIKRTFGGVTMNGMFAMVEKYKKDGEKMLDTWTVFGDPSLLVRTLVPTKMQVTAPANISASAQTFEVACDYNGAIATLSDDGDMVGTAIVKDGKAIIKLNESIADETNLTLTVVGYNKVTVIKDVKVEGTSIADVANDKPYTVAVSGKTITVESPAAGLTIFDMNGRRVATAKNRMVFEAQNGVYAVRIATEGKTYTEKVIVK

Chain of caspase 3 (P42574 whole entry, the tested form may be a part): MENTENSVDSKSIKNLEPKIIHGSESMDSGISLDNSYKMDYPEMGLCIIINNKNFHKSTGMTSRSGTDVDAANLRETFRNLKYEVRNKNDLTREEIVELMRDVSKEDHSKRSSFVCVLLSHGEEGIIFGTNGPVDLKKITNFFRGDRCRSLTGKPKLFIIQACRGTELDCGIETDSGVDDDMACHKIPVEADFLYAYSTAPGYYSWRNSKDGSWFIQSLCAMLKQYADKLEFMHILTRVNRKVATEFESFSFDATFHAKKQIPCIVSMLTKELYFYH
Chain of papain (P00784 134-345): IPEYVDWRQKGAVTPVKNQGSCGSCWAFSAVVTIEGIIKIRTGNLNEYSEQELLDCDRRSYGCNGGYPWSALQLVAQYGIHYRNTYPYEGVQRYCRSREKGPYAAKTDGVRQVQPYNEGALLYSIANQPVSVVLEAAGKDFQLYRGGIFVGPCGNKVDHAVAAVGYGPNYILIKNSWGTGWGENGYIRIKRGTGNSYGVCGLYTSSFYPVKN

How did the % proteolytic activity of caspase 3 (60 Units) with RgpB-PP at 100 mg/L, substrate Ac-DEVD-pNa (200 µM) (% proteolytic activity) (caspase 3) turn out when “recombinant RgpB propeptide (thrombin-cleaved) (from UniProt P95493 25-222) (domain or fragment)” was run?
Its % proteolytic activity of caspase 3 (60 Units) with RgpB-PP at 100 mg/L, substrate Ac-DEVD-pNa (200 µM) (% proteolytic activity) is 133.

What about the % proteolytic activity of Kgp (0.0075 mg/mL) with RgpB-PP at 50 mg/L, substrate GPKNA (% proteolytic activity) [1] of the same molecule?
Its % proteolytic activity of Kgp (0.0075 mg/mL) with RgpB-PP at 50 mg/L, substrate GPKNA (% proteolytic activity) is 118.

What about the % proteolytic activity of papain (2.75 mg/L) with RgpB-PP at 100 mg/L, substrate BapNA (% proteolytic activity) (papain) of the same molecule?
The % proteolytic activity of papain (2.75 mg/L) with RgpB-PP at 100 mg/L, substrate BapNA (% proteolytic activity) was 103.

B1: recombinant RgpB propeptide (thrombin-cleaved) (domain or fragment)
chain: QPAERGRNPQVRLLSAEQSMSKVQFRMDNLQFTGVQTSKGVAQVPTFTEGVNISEKGTPILPILSRSLAVSETRAMKVEVVSSKFIEKKDVLIAPSKGVISRAENPDQIPYVYGQSYNEDKFFPGEIATLSDPFILRDVRGQVVNFAPLQYNPVTKTLRIYTEIVVAVSETAEAGQNTISLVKNSTFTGFEDIYKSVFMNYEATR
modifications: Text prints 25-222, but the reverse primer encodes FMNYEATR-stop (end at 229), and 209 aa = GSHM vector remnant + 205 residues (25-229). The GSHM remnant left after thrombin cleavage is omitted. …
For B1, which Ki [2] is on record?
Its Ki is 12 nM.
